The target in assay [1] is T1, WD40 repeat protein 5 truncation mutant lacking residues 1-22 (WDR5ΔN) (UniProt P61964 23-334). In words: short-lived events (koff-1), 4 [WDR5].
The target of assay [2] is T1, WD40 repeat protein 5 truncation mutant …. In words: medium-lived events (koff-2), event durations.
Assay [3] shares this target. The experiment in a line: long-lived events (koff-3), 4 [WDR5].
For assay [4] the target is unchanged. In words: short-lived events (koff-1), 0.5 [WDR5].
For assay [5] the target is unchanged. The experiment in a line: long-lived events (koff-3), 2 [WDR5].
Assay [6] has the same target. In words: medium-lived events (koff-2), 2 [WDR5].
Assay [7] has the same target. The experiment in a line: short-lived events (koff-1), 2 [WDR5].
Assay [8] has the same target. In words: long-lived events (koff-3), event durations.
The target is the same in assay [9]. The experiment in a line: medium-lived events (koff-2), 0.5 [WDR5].
For assay [10] the target is unchanged. The experiment in a line: medium-lived events (koff-2), 1 [WDR5].
The target is the same in assay [11]. In words: short-lived events (koff-1), 1 [WDR5].
The target is the same in assay [12]. The experiment in a line: medium-lived events (koff-2), 4 [WDR5].
Assay [13] shares this target. In words: long-lived events (koff-3), 0.5 [WDR5].
For assay [14] the target is unchanged. The experiment in a line: long-lived events (koff-3), 1 [WDR5].
Assay [15] has the same target. In words: short-lived events (koff-1), event durations.
For assay [16] the target is unchanged. In words: long-lived events (koff-3), 2 [WDR5]. This is another data set of the same source.
Assay [17] shares this target. The experiment in a line: short-lived events (koff-1), 0.5 [WDR5]. This is another data set of the same source.
Assay [18] shares this target. The experiment in a line: medium-lived events (koff-2), 1 [WDR5]. This is another data set of the same source.
For assay [19] the target is unchanged. The experiment in a line: medium-lived events (koff-2), 4 [WDR5]. This is another data set of the same source.
Assay [20] shares this target. The experiment in a line: long-lived events (koff-3), 1 [WDR5]. This is another data set of the same source.
Assay [21] shares this target. The experiment in a line: short-lived events (koff-1), 1 [WDR5]. This is another data set of the same source.
The target is the same in assay [22]. The experiment in a line: long-lived events (koff-3), 4 [WDR5]. This is another data set of the same source.
For assay [23] the target is unchanged. In words: medium-lived events (koff-2), 2 [WDR5]. The source holds these as a separate data set.
Assay [24] shares this target. In words: short-lived events (koff-1), 4 [WDR5]. The source holds these as a separate data set.
The target is the same in assay [25]. The experiment in a line: long-lived events (koff-3), 0.5 [WDR5]. The source holds these as a separate data set.

Here are results for four molecules from PMC10278182 (2023).

In general, koff refers to a measure of how fast the partners let go of each other.

B1: O(GGS)4 nanopore sensor (adaptor O - MLL4Win - (GGS)4 tether - tFhuA) (other)
chain: MGDRGPEFELGTMLNPHGAARAEVYLRGGSGGSGGSGGS
As to B1, the koff is 81 s⁻¹ in assay [1]; 9.9 s⁻¹ in assay [2]; 0.79 s⁻¹ in [3]; 84 s⁻¹ in [4]; 0.77 s⁻¹ in assay [5]; 9.9 s⁻¹ in assay [6]. In addition, the koff in [7] amounted to 87 s⁻¹; in [8] it was 0.77 s⁻¹; in [9], 8.9 s⁻¹; in assay [10] it was 9.4 s⁻¹; in assay [11], 91 s⁻¹; in assay [12], 9.5 s⁻¹. Also, the koff in assay [13] was determined as 0.84 s⁻¹; in assay [14] it was 0.77 s⁻¹; in [15], 87 s⁻¹.

B2: O(PA)6 nanopore sensor (adaptor O - MLL4Win - (PA)6 tether - tFhuA) (other)
chain: MGDRGPEFELGTMLNPHGAARAEVYLRPAPAPAPAPAPA
On to B2, for which the koff in [16] came to 0.77 s⁻¹; in assay [17] it was 178 s⁻¹; in [18] it was 23 s⁻¹; in assay [2], 20 s⁻¹; in assay [19], 21 s⁻¹; in assay [20], 0.78 s⁻¹. In addition, the koff in assay [21] was found to be 159 s⁻¹; in assay [22] it was 0.73 s⁻¹; in [8], 0.77 s⁻¹; in assay [23] it was 20 s⁻¹; in assay [24], 167 s⁻¹; in [25], 0.77 s⁻¹.

B3: O(PA)3 nanopore sensor (adaptor O - MLL4Win - (PA)3 tether - tFhuA) (other)
chain: MGDRGPEFELGTMLNPHGAARAEVYLRPAPAPA
B3: the off-rate constant (koff) worked out at 34 s⁻¹ in assay [2] and 210 s⁻¹ in assay [15].

B4: O(GGS)2 nanopore sensor (adaptor O - MLL4Win - (GGS)2 tether - tFhuA) (other)
chain: MGDRGPEFELGTMLNPHGAARAEVYLRGGSGGS
Consider B4, for which the koff in assay [2] was 9.2 s⁻¹; in assay [15] it was 86 s⁻¹.
